Data: paper PMC11983130

Experiments:
SRSF1 RRM1+2 (ASF/SF2) [1] = biological target: T1, SRSF1 RRM1+2 (ASF/SF2) (UniProt Q07955 1-196); test: competition
SRSF1 RRM1+2 (ASF/SF2) [2] = biological target: T1, SRSF1 RRM1+2 (ASF/SF2); test: fluorescence anisotropy
SRSF1 RRM1+2 (ASF/SF2) [3] = biological target: T1, SRSF1 RRM1+2 (ASF/SF2); test: competition; remark: listed apart in the source

T1 sequence (Q07955 1-196): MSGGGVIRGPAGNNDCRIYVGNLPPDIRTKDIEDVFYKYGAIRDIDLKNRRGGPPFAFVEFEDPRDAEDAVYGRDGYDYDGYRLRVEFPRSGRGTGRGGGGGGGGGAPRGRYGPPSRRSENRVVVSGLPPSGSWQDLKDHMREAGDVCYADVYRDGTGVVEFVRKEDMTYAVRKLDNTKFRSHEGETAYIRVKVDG

B1: (A4U2)4 unlabeled (ssRNA)
RNA: AAAAUUAAAAUUAAAAUUAAAAUU
SRSF1 RRM1+2 (ASF/SF2) [1]
  Kd: ~200 nM

B2: SRSF1 canonical motif RNA (ssRNA)
RNA: AAAUCAGAGGAAAA
SRSF1 RRM1+2 (ASF/SF2) [2]
  Kd: 21 ± 3 nM

B3: (G4C2)4 unlabeled, folded without K+ (ssRNA)
RNA: GGGGCCGGGGCCGGGGCCGGGGCC
SRSF1 RRM1+2 (ASF/SF2) [3]
  Kd: < 21 nM
